± gives the standard deviation of the averaged measurements.
system: ATP; experiment: switch fluorescence ratio, 500 uM ATP over buffer (Cy3 cluster intensity, sum of 5 cycles each) (fold (ratio)); higher = stronger signal-on switching upon ATP binding; sequences stand for … in TCGTCGGCAGCGTCAGATGTGTATAAGAGACAGTTTTTTTTTTTTTTTTTTTTTTTTT…TC; settings: aptamer strand: ATP DNA aptamer (quencher-CACCTGGGGGAGTATTGCGGAGGAAGG + anchor), 100 nM annealed; ATP concentration: 500 uM
Outline: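 Switching-strand clusters labelled with Cy3 on a modified Illumina MiSeq flow-cell were annealed to 100 nM quencher-labelled ATP aptamer, imaged in selection buffer, and re-imaged after 15 min with 500 uM ATP at 22 °C. This was done over five cycles with NaOH stripping and re-annealing in between. The fluorescence ratio is summed target-cycle over summed buffer-cycle Cy3 intensity per cluster, averaged per switch-domain sequence, excluding clusters outside 100-1000 RFU.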
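Further: ATP exposure 15 min at 22 °C before imaging.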

Sequence | switch fluorescence ratio
GGGGTGGCAG | 0.975 ± 0.027
GGTCCCGGTG | 1.1 ± 0.013
CAATCTGATA | 0.99 ± 0.016
GTTGGAGGCG | 0.969 ± 0.049
TTCGTGGAAT | 0.977 ± 0.028
TCGGGCCGG | 0.994 ± 0.023
GGACTGCTGG | 1.03 ± 0.033
TTCTCGGATG | 0.995 ± 0.015
GATTTGGAAT | 0.986 ± 0.037
TGGATGGTGG | 0.9906 ± 0.0024
AATTTTATTT | 1.03 ± 0.062
ATTTTTAGAG | 1.01 ± 0.023
TTTTCGTAGG | 0.983 ± 0.011
TGAAGATTAT | 0.988 ± 0.012
GGTTATAGTA | 0.989 ± 0.042
CTCGTACGAG | 1.02 ± 0.021
TCTTTGAAGA | 1.14 ± 0.24
CCTGTGTTCG | 1 ± 0.025
CCAGGGGTCT | 1.22 ± 0.028
GTGAGGGTGG | 0.9695 ± 0.0093
GCACGAGTGC | 0.97 ± 0.02
GACTAATTTT | 0.9844 ± 0.0081
AGTTCTGGGT | 1.04 ± 0.081
TTTTTTTCGC | 1.01 ± 0.032
TTTCAAGTTT | 1.16 ± 0.3
GAGTTGCGCG | 1.01 ± 0.051

Sequence | switch fluorescence ratio
AAAATATGTG | 1.02 ± 0.062
CGTTGGCATA | 1.149 ± 0.0065
GAGGCGCGGA | 1.01 ± 0.013
GCCGACTCTG | 1.04 ± 0.048
GGCGTATTGG | 0.988 ± 0.027
TGGGGTGTCT | 0.993 ± 0.039
TTCAATTGTG | 0.9958 ± 0.0053
AACAATGAAG | 1.03 ± 0.022
TGATCCTATG | 0.992 ± 0.016
GCTGATTGTG | 1 ± 0.023
TGCGGTTGTT | 0.999 ± 0.046
ATATTGACCG | 1.03 ± 0.022
ACTCAGTTCT | 1.03 ± 0.016
GACGGAGGCT | 1.04 ± 0.042
TGGGGATCTT | 0.972 ± 0.057
ACCTTGATGG | 0.976 ± 0.077
CAGTAGAGGT | 0.9766 ± 0.0042
GCCGAGAAGT | 0.985 ± 0.027
CCATGGGTAG | 0.974 ± 0.056
CAGTGCGGCA | 1.038 ± 0.0027
GGATCCGGGA | 1.0104 ± 2.5e-05
TGATTCCATT | 0.9991 ± 0.0052
TAATTACGGA | 1.06 ± 0.026
CCGGTTTTGC | 1.21 ± 0.14
TATGGAAGCC | 0.982 ± 0.034
CTCTGTTTAG | 1.48 ± 0.53

Sequence | switch fluorescence ratio
AGAGTGGAGA | 1.009 ± 0.0004
AATGCTCGGA | 0.981 ± 0.02
TGGGGATTTG | 0.99 ± 0.032
TTATTATTAC | 1.04 ± 0.062
TGTAGTCTGG | 0.969 ± 0.024
TCACCGTTCT | 1.03 ± 0.032
AGTGCTTCGT | 0.9905 ± 0.0094
CCACTTACGG | 1.6327 ± 0.00046
ATTCTGTCGT | 1 ± 0.021
TGGGAGGGGC | 1.01 ± 0.021
AGGTCAGGTG | 3.06 ± 0.33
TTGAGATGGA | 1.01 ± 0.0062
TCCTGTTCCT | 1.02 ± 0.062
TTTAAGACC | 0.979 ± 0.015
TTGCCATGTG | 1 ± 0.034
TCGGGAATTG | 1.04 ± 0.085
TTCGGTGTTG | 0.969 ± 0.045
CTTAGGGGGC | 1.01 ± 0.051
GAAGAACCGG | 0.974 ± 0.022
TTGCGGGGGA | 1.01 ± 0.028
AAAGTGGGAT | 1.03 ± 0.019
AAGGTCTAAC | 1.012 ± 0.0067
TTTTTGGGCG | 1.01 ± 0.022
CAGTCAAGGG | 1.01 ± 0.013

— the supplement of paper PMC10126150
